Changes are numbered by the printed parent chain. Numbers in names are those of the source.
T1: EsCas13d, nuclease-dead (Eubacterium siraeum, UniProt B0MS50, R295A;H300A;R849A;H854A)
T1 sequence: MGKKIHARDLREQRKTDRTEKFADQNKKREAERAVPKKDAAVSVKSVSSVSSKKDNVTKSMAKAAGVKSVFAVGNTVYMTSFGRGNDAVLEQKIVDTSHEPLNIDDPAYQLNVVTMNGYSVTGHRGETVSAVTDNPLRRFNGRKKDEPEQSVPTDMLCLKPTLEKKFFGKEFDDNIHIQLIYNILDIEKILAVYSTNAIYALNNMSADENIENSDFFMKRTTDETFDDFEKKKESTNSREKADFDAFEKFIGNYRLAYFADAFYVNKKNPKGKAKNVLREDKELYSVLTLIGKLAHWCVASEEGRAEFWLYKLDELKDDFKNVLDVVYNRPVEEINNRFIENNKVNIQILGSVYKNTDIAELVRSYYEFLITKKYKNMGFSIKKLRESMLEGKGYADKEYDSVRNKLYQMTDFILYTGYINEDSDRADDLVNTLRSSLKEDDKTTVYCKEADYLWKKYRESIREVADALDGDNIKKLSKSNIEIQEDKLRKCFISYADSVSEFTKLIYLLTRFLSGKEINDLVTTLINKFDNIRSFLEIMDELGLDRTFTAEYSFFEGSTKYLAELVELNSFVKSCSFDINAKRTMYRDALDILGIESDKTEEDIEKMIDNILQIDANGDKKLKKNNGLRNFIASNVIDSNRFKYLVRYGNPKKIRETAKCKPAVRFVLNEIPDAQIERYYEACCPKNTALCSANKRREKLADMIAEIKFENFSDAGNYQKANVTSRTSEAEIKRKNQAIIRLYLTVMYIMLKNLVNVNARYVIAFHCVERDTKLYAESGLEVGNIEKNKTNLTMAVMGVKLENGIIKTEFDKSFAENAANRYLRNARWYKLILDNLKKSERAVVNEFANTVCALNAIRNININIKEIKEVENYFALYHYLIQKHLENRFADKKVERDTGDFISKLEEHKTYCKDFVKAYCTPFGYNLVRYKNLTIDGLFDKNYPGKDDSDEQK

B1: target 1 insU 3' of 5,insA 3' of 4 (mixed)
RNA 1: CACCCGUGCAAAAAUGCAGGGGUCUAAAACUGAGCGGAUAACCUCUCUAUGG
RNA 2: GGGAAUGGAUCCACAUCUACGAAUUCGUACCAUAGAGAGGUUAUCCGUCAUCACCGAGAUCGGAAGAGCACACGU
B2: target 1 C4U,A20C (mixed)
RNA 1: B1 RNA 1
RNA 2: GGGAAUGGAUCCACAUCUACGAAUUCGUACCCUAGAGAGGUUAUCCGUUCACCGAGAUCGGAAGAGCACACGU
B3: target 1 insU 3' of 18,insG 3' of 7 (mixed)
RNA 1: B1 RNA 1
RNA 2: GGGAAUGGAUCCACAUCUACGAAUUCGUACCAUAUGAGAGGUUAUCGCGCUCACCGAGAUCGGAAGAGCACACGU
B4: target 2 MT 5'PFS UUG 3'PFS UUC (mixed)
RNA 1: CACCCGUGCAAAAUUGCAGGGGUCUAAAACCUUCUCCAAAUUGUUUCAUCCU
RNA 2: GGGAAUGGAUCCACAUCUACGAAUUCUUGAGGAUGAAACAAUUUGGAGAAGUUCAGAUCGGAAGAGCACACGU
B5: target 2 MT 5'PFS GCA 3'PFS AGG (mixed)
RNA 1: B4 RNA 1
RNA 2: B4 RNA 2 with U27G, U28C, G29A, U52A, U53G, C54G
B6: target 2 MT 5'PFS AAC 3'PFS CCG (mixed)
RNA 1: B4 RNA 1
RNA 2: B4 RNA 2 with U27A, U28A, G29C, U52C, U53C, C54G
B7: target 2 MT 5'PFS AAA 3'PFS AAC (mixed)
RNA 1: B4 RNA 1
RNA 2: B4 RNA 2 with U27A, U28A, G29A, U52A, U53A
B8: target 2 MT 5'PFS AUU 3'PFS CGA (mixed)
RNA 1: B4 RNA 1
RNA 2: B4 RNA 2 with U27A, G29U, U52C, U53G, C54A
B9: target 2 MT 5'PFS AUU 3'PFS AGU (mixed)
RNA 1: B4 RNA 1
RNA 2: B4 RNA 2 with U27A, G29U, U52A, U53G, C54U
B10: target 2 MT 5'PFS GGA 3'PFS ACA (mixed)
RNA 1: B4 RNA 1
RNA 2: B4 RNA 2 with U27G, U28G, G29A, U52A, U53C, C54A
B11: target 2 MT 5'PFS UAG 3'PFS UGC (mixed)
RNA 1: B4 RNA 1
RNA 2: B4 RNA 2 with U28A, U53G
B12: target 2 MT 5'PFS GGA 3'PFS ACG (mixed)
RNA 1: B4 RNA 1
RNA 2: B4 RNA 2 with U27G, U28G, G29A, U52A, U53C, C54G
B13: target 2 MT 5'PFS AUU 3'PFS AUC (mixed)
RNA 1: B4 RNA 1
RNA 2: B4 RNA 2 with U27A, G29U, U52A
B14: target 2 MT 5'PFS UCU 3'PFS AUG (mixed)
RNA 1: B4 RNA 1
RNA 2: B4 RNA 2 with U28C, G29U, U52A, C54G
B15: target 2 MT 5'PFS AUU 3'PFS AGC (mixed)
RNA 1: B4 RNA 1
RNA 2: B4 RNA 2 with U27A, G29U, U52A, U53G
B16: target 2 MT 5'PFS GAU 3'PFS UUC (mixed)
RNA 1: B4 RNA 1
RNA 2: B4 RNA 2 with U27G, U28A, G29U
B17: target 2 MT 5'PFS ACU 3'PFS AUC (mixed)
RNA 1: B4 RNA 1
RNA 2: B4 RNA 2 with U27A, U28C, G29U, U52A
B18: target 2 MT 5'PFS UAG 3'PFS UGU (mixed)
RNA 1: B4 RNA 1
RNA 2: B4 RNA 2 with U28A, U53G, C54U
B19: target 2 MT 5'PFS AAC 3'PFS CCA (mixed)
RNA 1: B4 RNA 1
RNA 2: B4 RNA 2 with U27A, U28A, G29C, U52C, U53C, C54A
B20: target 2 MT 5'PFS UUG 3'PFS CUC (mixed)
RNA 1: B4 RNA 1
RNA 2: B4 RNA 2 with U52C
B21: target 2 MT 5'PFS AGA 3'PFS UAU (mixed)
RNA 1: B4 RNA 1
RNA 2: B4 RNA 2 with U27A, U28G, G29A, U53A, C54U
B22: target 2 MT 5'PFS ACU 3'PFS AUU (mixed)
RNA 1: B4 RNA 1
RNA 2: B4 RNA 2 with U27A, U28C, G29U, U52A, C54U
B23: target 2 MT 5'PFS AGG 3'PFS CUA (mixed)
RNA 1: B4 RNA 1
RNA 2: B4 RNA 2 with U27A, U28G, U52C, C54A
B24: target 2 MT 5'PFS UGC 3'PFS CAC (mixed)
RNA 1: B4 RNA 1
RNA 2: B4 RNA 2 with U28G, G29C, U52C, U53A
B25: target 2 MT 5'PFS CUG 3'PFS UAC (mixed)
RNA 1: B4 RNA 1
RNA 2: B4 RNA 2 with U27C, U53A
B26: target 2 MT 5'PFS GGA 3'PFS ACC (mixed)
RNA 1: B4 RNA 1
RNA 2: B4 RNA 2 with U27G, U28G, G29A, U52A, U53C
B27: target 2 MT 5'PFS GGA 3'PFS ACU (mixed)
RNA 1: B4 RNA 1
RNA 2: B4 RNA 2 with U27G, U28G, G29A, U52A, U53C, C54U
B28: target 2 MT 5'PFS AUU 3'PFS CGG (mixed)
RNA 1: B4 RNA 1
RNA 2: B4 RNA 2 with U27A, G29U, U52C, U53G, C54G
B29: target 2 MT 5'PFS CUG 3'PFS UAG (mixed)
RNA 1: B4 RNA 1
RNA 2: B4 RNA 2 with U27C, U53A, C54G
B30: target 2 MT 5'PFS AGA 3'PFS UAC (mixed)
RNA 1: B4 RNA 1
RNA 2: B4 RNA 2 with U27A, U28G, G29A, U53A
B31: target 2 MT 5'PFS UAU 3'PFS CAU (mixed)
RNA 1: B4 RNA 1
RNA 2: B4 RNA 2 with U28A, G29U, U52C, U53A, C54U
B32: target 2 MT 5'PFS CAU 3'PFS ACG (mixed)
RNA 1: B4 RNA 1
RNA 2: B4 RNA 2 with U27C, U28A, G29U, U52A, U53C, C54G
B33: target 2 MT 5'PFS AUU 3'PFS AGA (mixed)
RNA 1: B4 RNA 1
RNA 2: B4 RNA 2 with U27A, G29U, U52A, U53G, C54A
B34: target 2 MT 5'PFS ACU 3'PFS AUG (mixed)
RNA 1: B4 RNA 1
RNA 2: B4 RNA 2 with U27A, U28C, G29U, U52A, C54G
B35: target 2 MT 5'PFS CGU 3'PFS CGC (mixed)
RNA 1: B4 RNA 1
RNA 2: B4 RNA 2 with U27C, U28G, G29U, U52C, U53G
B36: target 2 MT 5'PFS AAC 3'PFS UGU (mixed)
RNA 1: B4 RNA 1
RNA 2: B4 RNA 2 with U27A, U28A, G29C, U53G, C54U
B37: target 2 MT 5'PFS CAU 3'PFS ACU (mixed)
RNA 1: B4 RNA 1
RNA 2: B4 RNA 2 with U27C, U28A, G29U, U52A, U53C, C54U
B38: target 2 MT 5'PFS UCU 3'PFS AUC (mixed)
RNA 1: B4 RNA 1
RNA 2: B4 RNA 2 with U28C, G29U, U52A

target: T1, EsCas13d, nuclease-dead; test: crRNA (strand 1, pre-loaded); Mg2+; 40 mM Tris-HCl pH 7.5, 150 mM NaCl, 6 mM MgCl2, 1 mM DTT, 0.1% Tween-20, 0.2 mg/ml BSA; 25 C; 10 min per concentration, then washed; conditions: tags: His6-TwinStrep-SUMO cleaved; N-terminal SNAP kept (SNAP-Surface 488); label: 3' end held by stalled T7 RNA polymerase

Point of comparison: B25, Kd 2.76 ± 0.35 nM. Against it:
- B1 — 5.9-fold higher, 16.2 ± 1.2 nM
- B2 — 33-fold higher, ~90 nM
- B3 — 9.2-fold higher, 25.5 ± 1.2 nM
- B4 — 23-fold higher, 64 ± 20 nM
- B5 — 4.7-fold higher, 13.1 ± 1.8 nM
- B6 — 2.1-fold higher, 5.9 ± 0.6 nM
- B7 — 1.7-fold higher, 4.6 ± 0.7 nM
- B8 — 2-fold higher, 5.5 ± 0.4 nM
- B9 — 1.6-fold higher, 4.5 ± 0.4 nM
- B10 — 3.8-fold higher, 10.4 ± 1.2 nM
- B11 — within error, 2.73 ± 0.25 nM
- B12 — 5-fold higher, 13.9 ± 1.4 nM
- B13 — 3.4-fold higher, 9.5 ± 1 nM
- B14 — 3-fold higher, 8.3 ± 1.5 nM
- B15 — 2.3-fold higher, 6.4 ± 0.8 nM
- B16 — 10-fold higher, 28 ± 7 nM
- B17 — within 1.5-fold, 4.1 ± 0.4 nM
- B18 — 1.8-fold higher, 4.9 ± 0.5 nM
- B19 — 4.7-fold higher, 13 ± 4 nM
- B20 — 13-fold higher, 37 ± 8 nM
- B21 — 2.7-fold higher, 7.4 ± 1.4 nM
- B22 — 1.6-fold higher, 4.4 ± 0.6 nM
- B23 — 2.4-fold higher, 6.7 ± 1.1 nM
- B24 — 6.5-fold higher, 18 ± 4 nM
- B26 — 5.1-fold higher, 14.1 ± 2.6 nM
- B27 — 3.6-fold higher, 9.8 ± 0.7 nM
- B28 — 3.5-fold higher, 9.6 ± 1.7 nM
- B29 — within error, 3.1 ± 0.5 nM
- B30 — 2.4-fold higher, 6.5 ± 1.1 nM
- B31 — 8.7-fold higher, 24.1 ± 2.7 nM
- B32 — 2.9-fold higher, 7.9 ± 2.5 nM
- B33 — 2-fold higher, 5.4 ± 0.8 nM
- B34 — 1.8-fold higher, 4.9 ± 0.6 nM
- B35 — 4-fold higher, 11.1 ± 1.7 nM
- B36 — 2.5-fold higher, 6.9 ± 1.2 nM
- B37 — 3.3-fold higher, 9 ± 1.9 nM
- B38 — 2.6-fold higher, 7.3 ± 1 nM

Reference: publication PMC10786891, “Massively parallel profiling of RNA-targeting CRISPR-Cas13d”
